T1: mIgG Fc-cyno PSMA ECD (cynomolgus monkey)
T1 construct: Called PSMA dimer in the SPR method; also called mFc-Cyno PSMA ECD; murine Fc-tagged cyno PSMA ECD
T1 chain: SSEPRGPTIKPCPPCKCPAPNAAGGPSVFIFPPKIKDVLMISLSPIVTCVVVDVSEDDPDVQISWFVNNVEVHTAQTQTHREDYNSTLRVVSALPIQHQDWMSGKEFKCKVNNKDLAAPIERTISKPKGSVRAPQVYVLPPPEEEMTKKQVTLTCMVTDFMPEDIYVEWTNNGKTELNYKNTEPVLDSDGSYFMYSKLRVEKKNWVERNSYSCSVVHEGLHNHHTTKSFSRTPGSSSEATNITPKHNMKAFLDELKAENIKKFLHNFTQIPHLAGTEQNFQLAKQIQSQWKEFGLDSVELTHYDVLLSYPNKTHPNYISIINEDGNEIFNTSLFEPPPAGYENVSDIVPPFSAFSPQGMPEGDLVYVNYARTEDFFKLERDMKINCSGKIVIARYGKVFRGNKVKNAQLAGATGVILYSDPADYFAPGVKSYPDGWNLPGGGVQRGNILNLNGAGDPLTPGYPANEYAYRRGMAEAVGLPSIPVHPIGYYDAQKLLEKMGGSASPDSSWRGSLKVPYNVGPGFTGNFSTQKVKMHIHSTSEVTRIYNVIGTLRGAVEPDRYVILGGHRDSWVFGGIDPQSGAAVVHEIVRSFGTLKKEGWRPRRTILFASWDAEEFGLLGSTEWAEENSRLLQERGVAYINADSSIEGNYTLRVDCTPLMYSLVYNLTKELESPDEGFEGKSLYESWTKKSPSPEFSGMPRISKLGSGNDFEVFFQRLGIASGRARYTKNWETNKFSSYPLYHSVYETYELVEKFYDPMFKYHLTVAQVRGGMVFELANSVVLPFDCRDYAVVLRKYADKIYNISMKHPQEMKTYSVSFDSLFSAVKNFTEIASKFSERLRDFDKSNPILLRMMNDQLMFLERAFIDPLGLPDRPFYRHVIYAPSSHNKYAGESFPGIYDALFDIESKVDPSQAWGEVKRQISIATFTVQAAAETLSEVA


Key:
[1] = molecular target: T2, human CD3ε in the TCR/CD3 complex on Jurkat cells (human, UniProt P07766 23-207); test: flow cytometry on Jurkat cells, PE goat anti-human IgG Fc secondary, MFI (median)
T2 construct: whole, on cells; On the cells it stands in the whole TCR/CD3 complex; also called CD3 (+) cells; CD3-expressing Jurkat cells

[2] = molecular target: T2, human CD3ε in the TCR/CD3 complex on …; test: flow cytometry, Jurkat cells (approximate calculation)
Method: Jurkat and C4-2B cells were labelled at approximately 100,000 cells per well, in 96-well plates, with serial dilutions of bispecific constructs ranging in concentration from of 0.1 to 300 nM, for 30 min on ice. Primary label was followed by washes and incubation with PE-labeled minimum cross species reactive secondary antibody, goat anti-human IgG Fcγ, F(ab′)2 (Jackson Laboratory) for 30 minutes on ice. Washes and incubation were done in staining buffer (PBS with 0.2% BSA and 2 mM EDTA). Cells were collected using an BD™ LSRII or a BD FACSymphony™ flow cytometer (BD Biosciences) and analyzed by FlowJo flow cytometry analysis software. Median fluorescence intensity (MFI) of bound molecules on cells was determined after exclusion of doublets. Results were plotted and nonlinear regression analysis to determine EC50 values was performed using GraphPad Prism 7® graphing and statistics software.
On Jurkat cells (FIG. 11B), a range of binding potencies was observed. […] Swapping the orientation of the CD3-binding domain from VH-VL (PSMA01071) to VL-VH (PSMA01086) further reduced binding to CD3 in the C-terminus. The maximum CD3-binding signal differed between the constructs with N-terminal CD3-binding domain constructs showing the highest maximum binding. However, potency (EC50) and not maximum binding correlated with function, as will be shown in the next example.

[3] = molecular target: T3, Full-length Human PSMA (TSC435), on cells (human, UniProt Q04609 1-750); test: flow cytometry on C4-2B cells, PE goat anti-human IgG Fc secondary, MFI (median)
T3 construct: also called CHOK1SV/huPSMA; PSMA on C4-2B, 22RV1, LNCaP, MDA-PCa-2b cells

[4] = molecular target: T2, human CD3ε in the TCR/CD3 complex on …; test: cell-based or functional assay
[5] = molecular target: T2, human CD3ε in the TCR/CD3 complex on …; test: flow cytometry on Jurkat cells, MFI (median)
[6] = molecular target: T4, Human PSMA ECD-AFH (TSC033), recombinant dimeric PSMA ECD (human, UniProt Q04609 44-750); test: SPR (Biacore T200), human PSMA dimer ECD 10X His (TSC033), 1:1 fit
T4 construct: SEC-purified dimer; also called HuPSMA-AFH; Avi-His-Human PSMA ECD

mIgG Fc-human PSMA ECD = molecular target: T5, mIgG Fc-human PSMA ECD (human); test: SPR (Biacore T200), bispecific amine-coupled, mFc-PSMA dimer 1-81 nM as analyte, 1:1 fit
T5 construct: Called PSMA dimer in the SPR method; also called mFc-Hu PSMA ECD; murine Fc-tagged human PSMA ECD
Method: (§1) SPR studies were performed on a subset of bispecific constructs binding to Human and cynomolgus primate PSMA ectodomain (ECD) fused to the c-terminus of a murine IgG1 Fc region. These experiments were conducted at 25° C. in dPBS (Gibco, 14040-133) with 0.2% BSA buffer on a Biacore T200 system. Bispecific constructs were immobilized at a density of ˜2,000-4,000 response units (RU) onto individual flow cells of a CM5 research-grade sensor chip (GE) by standard amine coupling chemistry, leaving one flow cell surface unmodified as the reference. Using a multi-cycle kinetics mode, a buffer blank and […] different concentrations of the PSMA dimer ranging from 1 nM to 81 nM in dPBS with 0.2% BSA were sequentially injected through each flow cell at 30 μL/min for 300 seconds followed by a 600 second dissociation phase. Regeneration was achieved by injection of 10 mM glycine pH 2.0 at a flow rate of 30 μL/min for 40 seconds followed by dPBS with 0.2% BSA buffer stabilization for 1 min.
(§2) Sensorgrams obtained from kinetic SPR measurements were analyzed by the double subtraction method. The signal from the reference flow cell was subtracted from the analyte binding response obtained from flow cells with captured ligands. The buffer blank response was then subtracted from analyte binding responses and the final double-referenced data were analyzed with Biacore T200 Evaluation software (2.0, GE), globally fitting data to derive kinetic parameters. All sensorgrams were fitted using a simple one-to-one binding model.

mIgG Fc-cyno PSMA ECD = molecular target: T1, mIgG Fc-cyno PSMA ECD; test: as above
Method: as §1, §2

T2 sequence (P07766 23-207, one chain of several): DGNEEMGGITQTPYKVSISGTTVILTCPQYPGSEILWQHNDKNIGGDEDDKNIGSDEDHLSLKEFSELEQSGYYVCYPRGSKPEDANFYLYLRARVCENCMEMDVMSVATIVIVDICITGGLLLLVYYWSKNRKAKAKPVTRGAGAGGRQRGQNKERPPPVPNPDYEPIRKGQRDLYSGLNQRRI
T3 sequence (Q04609 whole entry): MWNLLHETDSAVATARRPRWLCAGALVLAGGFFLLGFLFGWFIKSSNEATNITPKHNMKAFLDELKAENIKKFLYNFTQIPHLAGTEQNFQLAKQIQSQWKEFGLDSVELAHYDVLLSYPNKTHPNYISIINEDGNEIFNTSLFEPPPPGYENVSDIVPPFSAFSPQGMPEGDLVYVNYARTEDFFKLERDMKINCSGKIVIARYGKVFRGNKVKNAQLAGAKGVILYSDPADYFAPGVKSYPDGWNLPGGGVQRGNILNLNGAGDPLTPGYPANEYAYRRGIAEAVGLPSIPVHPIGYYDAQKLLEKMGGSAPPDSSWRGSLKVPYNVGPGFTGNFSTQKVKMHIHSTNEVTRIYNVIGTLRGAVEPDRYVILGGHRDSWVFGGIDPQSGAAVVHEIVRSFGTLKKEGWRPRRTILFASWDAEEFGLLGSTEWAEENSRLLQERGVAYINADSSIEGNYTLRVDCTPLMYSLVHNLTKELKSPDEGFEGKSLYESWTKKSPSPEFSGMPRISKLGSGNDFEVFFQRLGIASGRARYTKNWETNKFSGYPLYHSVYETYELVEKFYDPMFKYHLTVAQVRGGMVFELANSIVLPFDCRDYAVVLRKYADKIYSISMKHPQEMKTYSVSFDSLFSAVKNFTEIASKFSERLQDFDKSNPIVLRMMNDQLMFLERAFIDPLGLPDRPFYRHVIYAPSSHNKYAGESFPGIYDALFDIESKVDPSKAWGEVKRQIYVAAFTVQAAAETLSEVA
T4 sequence (Q04609 other isoform, or with tags, fused parts or gaps): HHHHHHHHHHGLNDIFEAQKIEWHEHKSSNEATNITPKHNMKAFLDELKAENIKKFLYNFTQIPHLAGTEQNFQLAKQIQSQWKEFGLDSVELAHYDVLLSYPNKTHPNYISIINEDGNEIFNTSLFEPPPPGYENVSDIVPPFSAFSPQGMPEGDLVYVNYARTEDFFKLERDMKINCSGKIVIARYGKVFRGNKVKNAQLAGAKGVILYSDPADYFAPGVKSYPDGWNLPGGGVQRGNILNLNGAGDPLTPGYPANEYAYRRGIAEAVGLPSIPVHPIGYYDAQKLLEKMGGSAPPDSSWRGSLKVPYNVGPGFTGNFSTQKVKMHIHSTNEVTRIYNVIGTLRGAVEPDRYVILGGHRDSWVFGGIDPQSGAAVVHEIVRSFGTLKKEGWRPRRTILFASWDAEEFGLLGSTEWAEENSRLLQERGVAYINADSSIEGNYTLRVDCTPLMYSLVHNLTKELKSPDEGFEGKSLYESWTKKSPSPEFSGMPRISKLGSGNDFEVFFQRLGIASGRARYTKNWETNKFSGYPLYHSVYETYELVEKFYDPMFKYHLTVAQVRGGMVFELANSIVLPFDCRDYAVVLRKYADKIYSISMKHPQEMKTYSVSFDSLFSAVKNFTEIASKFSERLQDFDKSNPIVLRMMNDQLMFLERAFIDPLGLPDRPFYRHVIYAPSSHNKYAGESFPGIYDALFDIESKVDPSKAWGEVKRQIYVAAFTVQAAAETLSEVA

EC50 [1] [nM] | fold reduction in binding potency against PSMA01072 [2] [fold] | EC50 [3] [nM] | fold decrease in T-cell activation and proliferation [4] [fold] | binding result [5] | Kd [6] [nM] | Kd (mIgG Fc-human PSMA ECD) [nM] | Kd (mIgG Fc-cyno PSMA ECD) [nM] | Binder | cytotoxic activity [4] [fold]
> 204 | ~200 | 1 | ~3 | – | – | – | – | PSMA01071 Anti PSMA scFv x Fc; Anti PSMA scFv x Fc x Anti CD3 scFv (bispecific antibody) chain 1: QVQLVQSGAEVKKPGASVKVSCKASGYTFTDYYMHWVRQAPGQGLEWMGYFNPYNDYTRYAQKFQGRVTMTRDTSTSTVYMELSSLRSEDTAVYYCARSDGYYDAMDYWGQGTTVTVSSGGGGSGGGGSGGGGSGGGGSDIQMTQSPSSLSASVGDRVTITCRASKSISKYLAWYQQKPGKAPKLLIHSGSSLESGVPSRFSGSGSGTEFTLTISSLQPDDFATYYCQQHIEYPWTFGQGTKVEIKEPKSSDKTHTCPPCPAPPAAAPSVFLFPPKPKDTLMISRTPEVTCVVVDVSHEDPEVKFNWYVDGVEVHNAKTKPREEQYNSTYRVVSVLTVLHQDWLNGKEYKCAVSNKALPAPIEKTISKAKGQPREPQVYTLPPSRDELTKNQVSLWCLVKGFYPSDIAVEWESNGQPENNYKTTPPVLDSDGSFFLYSKLTVDKSRWQQGNVFSCSVMHEALHNHYTQKSLSLSPG chain 2: QVQLVQSGAEVKKPGASVKVSCKASGYTFTDYYMHWVRQAPGQGLEWMGYFNPYNDYTRYAQKFQGRVTMTRDTSTSTVYMELSSLRSEDTAVYYCARSDGYYDAMDYWGQGTTVTVSSGGGGSGGGGSGGGGSGGGGSDIQMTQSPSSLSASVGDRVTITCRASKSISKYLAWYQQKPGKAPKLLIHSGSSLESGVPSRFSGSGSGTEFTLTISSLQPDDFATYYCQQHIEYPWTFGQGTKVEIKEPKSSDKTHTCPPCPAPPAAAPSVFLFPPKPKDTLMISRTPEVTCVVVDVSHEDPEVKFNWYVDGVEVHNAKTKPREEQYNSTYRVVSVLTVLHQDWLNGKEYKCAVSNKALPAPIEKTISKAKGQPREPQVYTLPPSRDELTKNQVSLSCAVKGFYPSDIAVEWESNGQPENNYKTTPPVLDSDGSFFLVSKLTVDKSRWQQGNVFSCSVMHEALHNRFTQKSLSLSPGGGGSPSQVQLVQSGAEVKKPGASVKVSCKASGYTFTRSTMHWVRQAPGQGLEWIGYINPSSAYTNYAQKFQGRVTLTADKSTSTAYMELSSLRSEDTAVYYCASPQVHYDYNGFPYWGQGTLVTVSSGGGGSGGGGSGGGGSGGGGSDIQMTQSPSSLSASVGDRVTITCRASSSVSYMNWYQQKPGKAPKRWIYDSSKLASGVPSRFSGSGSGTDFTLTISSLQPEDFATYYCQQWSRNPPTFGQGTKVEIKRS | ~10
– | – | – | – | binds | 5.2 | 4.1 | 6.2 | PSMA01116 Anti-PSMA scFv x Fc x linker x Anti CD3 scFv; Anti PSMA scFv x Fc (bispecific antibody, Heterodimer, bivalent for PSMA and monovalent for CD3; also called PSM01116) chain 1: QVQLVQSGAEVKKPGASVKVSCKASGYTFTDYYMHWVRQAPGQGLEWMGYFNPYNDYTRYAQKFQGRVTMTRDTSTSTVYMELSSLRSEDTAVYYCARSDGYYDAMDYWGQGTTVTVSSGGGGSGGGGSGGGGSGGGGSDIQMTQSPSSLSASVGDRVTITCRASKSISKYLAWYQQKPGKAPKLLIHSGSSLESGVPSRFSGSGSGTEFTLTISSLQPDDFATYYCQQHIEYPWTFGQGTKVEIKEPKSSDKTHTCPPCPAPPAAAPSVFLFPPKPKDTLMISRTPEVTCVVVDVSHEDPEVKFNWYVDGVEVHNAKTKPREEQYNSTYRVVSVLTVLHQDWLNGKEYKCAVSNKALPAPIEKTISKAKGQPREPQVYTLPPSRDELTKNQVSLWCLVKGFYPSDIAVEWESNGQPENNYKTTPPVLDSDGSFFLYSKLTVDKSRWQQGNVFSCSVMHEALHNHYTQKSLSLSPGGGGSPSQVQLVQSGAEVKKPGASVKVSCKASGYTFTRSTMHWVRQAPGQGLEWIGYINPSSAYTNYAQKFQGRVTLTADKSTSTAYMELSSLRSEDTAVYYCASPQVHYDYNGFPYWGQGTLVTVSSGGGGSGGGGSGGGGSGGGGSDIQMTQSPSSLSASVGDRVTITCRASSSVSYMNWYQQKPGKAPKRWIYDSSKLASGVPSRFSGSGSGTDFTLTISSLQPEDFATYYCQQWSRNPPTFGQGTKVEIK chain 2: QVQLVQSGAEVKKPGASVKVSCKASGYTFTDYYMHWVRQAPGQGLEWMGYFNPYNDYTRYAQKFQGRVTMTRDTSTSTVYMELSSLRSEDTAVYYCARSDGYYDAMDYWGQGTTVTVSSGGGGSGGGGSGGGGSGGGGSDIQMTQSPSSLSASVGDRVTITCRASKSISKYLAWYQQKPGKAPKLLIHSGSSLESGVPSRFSGSGSGTEFTLTISSLQPDDFATYYCQQHIEYPWTFGQGTKVEIKEPKSSDKTHTCPPCPAPPAAAPSVFLFPPKPKDTLMISRTPEVTCVVVDVSHEDPEVKFNWYVDGVEVHNAKTKPREEQYNSTYRVVSVLTVLHQDWLNGKEYKCAVSNKALPAPIEKTISKAKGQPREPQVYTLPPSRDELTKNQVSLSCAVKGFYPSDIAVEWESNGQPENNYKTTPPVLDSDGSFFLVSKLTVDKSRWQQGNVFSCSVMHEALHNHYTQKSLSLSPG | –

Source: patent US20240301086A1 (APTEVO RESEARCH AND DEVELOPMENT, published 2024)
